Experiment [1] deals with T1, human OX40 on cells (CHO-hOX40, 293HEK-hOX40, Jurkat-hOX40, activated primary CD4+ T cells) (human, UniProt P43489 29-277).
T1 construct: whole, on cells; The cell type is told in each assay; also called CHO-OX40
T1 sequence (looked up): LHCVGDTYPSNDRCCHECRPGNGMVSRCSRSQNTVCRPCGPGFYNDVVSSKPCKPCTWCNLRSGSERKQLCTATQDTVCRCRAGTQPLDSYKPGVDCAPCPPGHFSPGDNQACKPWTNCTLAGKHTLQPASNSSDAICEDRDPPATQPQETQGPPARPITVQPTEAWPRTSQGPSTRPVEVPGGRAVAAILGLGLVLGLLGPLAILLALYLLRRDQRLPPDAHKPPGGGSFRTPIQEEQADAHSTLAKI
As to the kind of experiment: flow cytometry, 293HEK-hOX40 cells.

Experiment [2] has as its target T1, human OX40 on cells (CHO-hOX40, …). The experiment can be described thus: flow cytometry, CHO-hOX40, 0.78125 nM. (A flow cytometer gives signals particle by particle.)
The target is the same in experiment [3]. The experiment can be described thus: flow cytometry, CHO-hOX40, 12.5 nM.
For experiment [4] the target is unchanged. The experiment can be described thus: flow cytometry, CHO-hOX40, 100 nM.
For experiment [5] the target is unchanged. The experiment can be described thus: flow cytometry, 293HEK-hOX40, 40 nM.
For experiment [6] the target is unchanged. The experiment can be described thus: flow cytometry, CHO-hOX40, 100 nM blocker, competitor OX40L-hFc-fluorescein.
The target is the same in experiment [7]. The experiment can be described thus: flow cytometry, activated CD4+ T cells, donor 1, 100 nM.
The target is the same in experiment [8]. The experiment can be described thus: flow cytometry, 293HEK-hOX40, 200 nM.
The target is the same in experiment [9]. The experiment can be described thus: flow cytometry, CHO-hOX40, 0.390625 nM.
Experiment [10] has the same target. As to the kind of experiment: flow cytometry, activated CD4+ T cells, donor 2, 100 nM.
For experiment [11] the target is unchanged. As to the kind of experiment: flow cytometry, CHO-hOX40, 6.25 nM.
Experiment [12] shares this target. The experiment can be described thus: flow cytometry, 293HEK-hOX40, 8 nM.
Experiment [13] has the same target. As to the kind of experiment: flow cytometry, CHO-hOX40, 25 nM.
Experiment [14] shares this target. The experiment can be described thus: flow cytometry, CHO-hOX40, 1.5625 nM.
For experiment [15] the target is unchanged. The experiment can be described thus: flow cytometry, CHO-hOX40, 3.125 nM.
Experiment [16] shares this target. As to the kind of experiment: flow cytometry, CHO-hOX40, 0.024414063 nM.
Experiment [17] shares this target. The experiment can be described thus: flow cytometry, CHO-hOX40, 0.09765625 nM.
The target is the same in experiment [18]. The experiment can be described thus: flow cytometry, CHO-hOX40, 200 nM.
Experiment [19] shares this target. As to the kind of experiment: flow cytometry, CHO-hOX40, 50 nM.
For experiment [20] the target is unchanged. As to the kind of experiment: flow cytometry, CHO-hOX40, 0.048828125 nM.
For experiment [21] the target is unchanged. As to the kind of experiment: flow cytometry, CHO-hOX40, 0.1953125 nM.
Experiment [22] shares this target. The experiment can be described thus: flow cytometry, 293HEK-hOX40, 1.6 nM.

B1: IgG1 control (antibody, V domains shown)
VH: EVRLLESGGGLVQPGGSLRLSCAASGFTFSNYAMGWVRQAPGKGLEWVSAISGSGGSTYYADSVKGRFTTSRDDSKNALYLQMNSLRAEDTAVYYCARGGPGWYAADVWGQGTTVTVSS
VL: DIQMTQSPSSLSASVGDRVTITCRASQSISSYLNWYQQKPGKAPKLLIYAASSLQSGVPSRFSGSGSGTDFTLTISSLQPEDFATYYCQQADLPAFAFGGGTKVEIKR
notes: Negative control; The printed entries seem to begin with a leader peptide
With B1, the binding result in experiment [1] is given as “no binding (tested: 200 nM)”. In addition, the MFI in experiment [2] stood at 1680 MFI; in [3] it was 1630 MFI; in experiment [4], 1720 MFI; in experiment [5], 25200 MFI; in experiment [7], 6310 MFI; in experiment [8], 11100 MFI. Moreover, the MFI is 1710 MFI in experiment [9]; 1710 MFI in experiment [10]; 1600 MFI in [11]; 5310 MFI in experiment [12]; 1560 MFI in experiment [13]; 1930 MFI in [14]. Moreover, the MFI turned out to be 1750 MFI in [15]; 2070 MFI in experiment [16]; 2380 MFI in experiment [17]; 2820 MFI in experiment [18]; 1700 MFI in experiment [19]; 2020 MFI in [20]. Besides, the MFI in experiment [21] is 1510 MFI; in [22] it was 5630 MFI. In addition, the “MFI of OX40L signal on CHO-OX40 cells” value in experiment [6] was 35100 MFI.

For the origin of these results see patent publication US20200140562A1 (Innovent, published 2020).
